Laboratory results as given in patent US20160264650A1 (Regeneron, published 2016).
Read-outs that look alike come from different tables or passages of the source.

Key:
[1] = biological target: T1, Clostridium difficile toxin A, soluble full-length (TechLab) (Clostridium difficile, UniProt P16154 1-2710); assay: cell-based or functional assay
[2] = biological target: T1, Clostridium difficile toxin A, soluble …; assay: cell-based or functional assay; remark: listed apart in the source
[3] = biological target: T1, Clostridium difficile toxin A, soluble …; assay: SPR Biacore T200, 37C, mAb capture
[4] = biological target: T2, CBD-toxin A-Fc (Clostridium difficile, UniProt P16154 1848-2710); assay: SPR Biacore, CBD-A-Fc captured, 500 nM mAb flowed
T2 construct: also called CBD-A; C-term Toxin A

[5] = biological target: T3, CBD-toxin B-Fc (Clostridium difficile, UniProt P18177 1851-2366); assay: SPR Biacore, CBD-B-Fc captured, 500 nM mAb flowed
T3 construct: also called CBD-B; C-term Toxin B

[6] = biological target: T2, CBD-toxin A-Fc; assay: SPR Biacore, mAb captured, 100 nM CBD-A-Fc flowed
[7] = biological target: T1, Clostridium difficile toxin A, soluble …; assay: SPR Biacore T200, 37C, mAb capture; remark: listed apart in the source
[8] = biological target: T4, Clostridium difficile toxin B, soluble full-length (TechLab) (Clostridium difficile, UniProt P18177 2-2366); assay: SPR Biacore T200, 37C, mAb capture
T4 construct: also called tcdB

[9] = biological target: T5, C-term receptor Binding Domain (CBD) of toxin A (Clostridium difficile, UniProt P16154 1848-2710); assay: SEC (Superose 6) of CBD and mAb mixture
T5 construct: also called CBD-A; recombinant CBD of toxin A

[10] = biological target: T2, CBD-toxin A-Fc; assay: SPR Biacore, mAb capture and CBD-Fc capture formats
[11] = biological target: T3, CBD-toxin B-Fc; assay: as above

B1: H1H3330P (antibody, V domains shown)
VH: QVQLVESGGGVVQPGGSLRLSCAASGFTFSSYAMHWVRQAPGKGLEWVAIIWFDGSNEDYADSVKGRFTISRDNSKNMVYLQINSLRAEDTAVYYCARSANWNYEGGPLFDYWGQGTLVTVSS
VL: DIQMTQSPSSLSASVGDRVTITCRASQTISTFLNWYQQKPGKGPELLIYTASSLQSGVPSRFSGSGSGTDFALTISSLQPEDFATYYCQQNYNDPPTFGQGTRLEIKR
For B1, the “neutralization potency relative to control I” value [1] was ~20 fold, the “IC50, Vero cell viability (neutralization), Trial 3, 32 pM Toxin A” value [2] was 7 pM and the “IC50, Vero cell viability (neutralization), Trial 5, 25 pM Toxin A” value [2] was 7 pM. The Kd [3] was 0.547 nM, the “T½” value [3] was 1.42 h and the koff [3] was 0.000137 s⁻¹. The kon [3] was 250000 M⁻¹ s⁻¹, the “binding (RU)” value [4] was 515 RU and the “binding (RU)” value [5] was -4 RU. For the same binder, the “binding (RU)” value [6] was 441 RU.

B2: H2M3123N (antibody, V domains shown)
VH: DVQLVESGGDFVQPGGSLRLSCAASGVAFNDYEMNWIRQAPGKRLEWISHIDSSGTIIYYADSVKGRFTISRDSAKNSLFLQMDSLRAEDTAVYYCARERYSHYGYYYFGMDVWGQGTTVTVSS
VL: DIQMTQSPSTLSASVGDRVTITCRASQNIDNWLAWYQQKTGKAPNLLIYKASTLESGVPSRFSGSGSGTEFTLTIISLQPDDFATYYCQEYNTYSRTFGQGTKVEIK
notes: also called H2aM3123N; H1M3123N
With B2 the “IC50, Vero cell viability (neutralization), Trial 1, 32 pM Toxin A” value [2] was 65 pM, the “IC50, Vero cell viability (neutralization), Trial 2, 32 pM Toxin A” value [2] was 24 pM and the Kd [7] was 0.481 nM. For the same binder, the “T½” value [7] was 0.317 h, the koff [7] was 0.000593 s⁻¹ and the kon [7] was 1.23e+06 M⁻¹ s⁻¹. The Kd [8] was 1.65 nM, the “T½” value [8] was 2.93 h and the koff [8] was 6.54e-05 s⁻¹. For the same binder, the kon [8] was 39700 M⁻¹ s⁻¹, the binding result [9] was “no binding (tested: CBD at ~500 nM, CBD:Mab 1:5 and 1:20)” and the “binding (RU)” value [4] was 23 RU. For the same binder, the “binding (RU)” value [6] was 1 RU, the binding result [10] was “no binding” and the binding result [11] was “no binding”.
